Entries after “also recorded” stand apart in the source; their conditions may differ. Where no end group is shown, it is not given here. [ ]: non-standard residue; d: D form. Ahx = NCCCCCC(=O)O
Columns and labels:
[1] = Induction of apoptosis by Nur77 peptides, cell line not stated; type: cell-based
Description: Apoptosis assays—For nuclear morphological change analysis, cells were trypsinized, washed with PBS, fixed with 3.7% paraformaldehyde, and stained with DAPI (4,6-diamidino-2-phenylindole) (50 μg/ml) to visualize the nuclei by UV-microscopy. The percentages of apoptotic cells were determined by counting 300 GFP-positive cells, scoring cells having nuclear fragmentation and/or chromatin condensation.

Mcl-1 = Mcl-1 (Homo sapiens, UniProt Q07820); assay: Co-immunoprecipitation with myc-tagged Mcl-1 in HEK293T cells; type: binding
Description: (§1) Nur77 peptide binds anti-apoptotic Bcl-2 family members. Nur77-peptide binds Bcl-B, Bfl-1, and Bcl-2, but not Mcl-1 and Bcl-xL. […] The expression vector for the GFP-Nur77/489-497 fusion was transfected into HEK293T cells together with or without the indicated expression vector for myc-tagged Bcl-2 family member. Cell lysates were prepared and analyzed for interaction of Nur77/489-497 with Bcl-2 family members by co-immunoprecipitation assay using anti-Myc antibody. Immunoprecipitates were then separated on SDS/PAGE and immunoblotted using anti-GFP antibody. […] Nur77/Bcl-2 interaction assays—Reporter gene assays using NurRE-tk-CAT in CV-1 cells, and GST pull-down assay were described previously (Li, et al. 2000 Science 289:1159-1164). For the mammalian two-hybrid assays, CV-1 cells were co-transfected with pcDNA-Gal4TAD-Nur77 or pcDNA-Gal4TAD-Nur77/ΔDBD and pcDNA-Gal4 DBD-Bcl-2/ΔTM along with a luciferase reporter gene driven by four copies of the Gal-4-binding site. The cells were harvested and reporter gene activity was measured. […] Immunoreactive products were detected by chemiluminescence with an enhanced chemiluminescence system (ECL) (Amersham).

mitochondria = assay: Subcellular localization, colocalization with RFP-Mito; type: cell-based
Description: Subcellular localization assays—Cells were seeded onto cover-slips in 6-well plates overnight, then transiently transfected with GFP-fusion expression plasmids. After 16 hours, cells were washed with PBS and fixed in 4% paraformaldehyde. […] For cyt c staining, cells were incubated with monoclonal anti-cyt c IgG (PharMingen), followed by anti-mouse IgG conjugated with Cy5 (Amersham). Fluorescent images were collected and analyzed using a MRC-1024 MP laser-scanning confocal microscope (Bio-Rad). Subcellular fractionation assays were performed as described (Li, et al. 2000 Science 289:1159-1164). Briefly, cells (1×10^7 cells) suspended in 0.5 ml hypotonic buffer (5 mM Tris-HCl, pH 7.4, 5 mM KCl, 1.5 mM MgCl2, 0.1 mM EGTA, pH 8.0, and 1 mM DTT) were homogenized and cell extracts were centrifuged at 500×g for 5 min. The resulting supernatant was centrifuged at 10,000×g for 30 min at 4° C. to obtain the HM fraction. HM fraction was resuspended in 100 μl lysis buffer (10 mM Tris, pH 7.4, 150 mM NaCl, 1% Triton X-100, 5 mM EDTA, pH 8.0) for immunoblotting analysis.

Bcl-2 [2] = biological target: T1, Bcl-2 (Homo sapiens, UniProt P10415); assay: Co-immunoprecipitation with Bcl-2 in HEK293T cells; type: binding; parameters: expressed in transfected cells; host or cells: HEK293T
Description: as §1, with “measured. For Co-IP assays, HEK293T cells were transiently transfected with various expression plasmids using a modified calcium phosphate precipitation method (Wu et al, 1997) in the presence of caspase inhibitors (zVAD-fmk) to prevent degradation of Nur77 protein due to apoptosis. Cells were suspended in lysis buffer (50 mM Tris-HCl, PH7.4; 150 mM NaCl; 20 mM EDTA; 1% NP-40; 1 mM PMSF; 50 μg/ml Leupeptin; […]; 0.1 mM Na3VO4; and 1 mM DTT). Cells extracts were cleared by incubation with the Protein A/G plus Agarose beads (Santa Cruz) and then incubated with appropriate antibody and 30 μl of Protein A or G plus Agarose beads overnight at 4° C.” for “measured.”
Target sequence in this assay (P10415 whole entry): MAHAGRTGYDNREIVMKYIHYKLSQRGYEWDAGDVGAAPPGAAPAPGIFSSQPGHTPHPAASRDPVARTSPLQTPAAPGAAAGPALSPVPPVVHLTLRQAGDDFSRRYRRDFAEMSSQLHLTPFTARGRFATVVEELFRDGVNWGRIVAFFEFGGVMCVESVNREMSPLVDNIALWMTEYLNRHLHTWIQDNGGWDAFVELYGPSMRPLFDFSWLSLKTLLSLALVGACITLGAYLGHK

Bfl-1 = biological target: T2, Bfl-1 (Homo sapiens, UniProt Q16548); assay: Co-immunoprecipitation with myc-tagged Bfl-1 in HEK293T cells; type: binding
T2 construct: expressed in transfected cells; host or cells: HEK293T
T2 sequence (Q16548 1-175): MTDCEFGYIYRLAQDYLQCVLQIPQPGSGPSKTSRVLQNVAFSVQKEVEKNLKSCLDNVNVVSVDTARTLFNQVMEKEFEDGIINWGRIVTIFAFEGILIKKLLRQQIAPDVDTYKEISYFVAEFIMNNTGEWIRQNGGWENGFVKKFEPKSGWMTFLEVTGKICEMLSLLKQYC
Description: as §1

Bcl-XL = Bcl-XL (Homo sapiens, UniProt Q07817); assay: Co-immunoprecipitation with myc-tagged Bcl-XL in HEK293T cells; type: binding
Description: as §1

Bcl-B = biological target: T3, Bcl-B (Homo sapiens, UniProt Q9HD36); assay: Co-immunoprecipitation with myc-tagged Bcl-B in HEK293T cells; type: binding
T3 construct: expressed in transfected cells; host or cells: HEK293T
T3 sequence (Q9HD36 1-204): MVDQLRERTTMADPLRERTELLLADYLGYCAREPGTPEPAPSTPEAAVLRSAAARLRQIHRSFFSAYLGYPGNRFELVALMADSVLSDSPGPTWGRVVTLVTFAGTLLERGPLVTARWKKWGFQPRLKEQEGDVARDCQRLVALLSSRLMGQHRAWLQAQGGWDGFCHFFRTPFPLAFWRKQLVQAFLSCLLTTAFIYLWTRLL
Description: as §1

Bcl-2 [3] = biological target: T1, Bcl-2; assay: Competition assay of Nur77/ΔDBD binding with Bcl-2; parameters: expressed in transfected cells; host or cells: HEK293T
Description: Nur77/Bcl-2 interaction assays—Reporter gene assays using NurRE-tk-CAT in CV-1 cells, and GST pull-down assay were described previously (Li, et al. 2000 Science 289:1159-1164). For the mammalian two-hybrid assays, CV-1 cells were co-transfected with pcDNA-Gal4TAD-Nur77 or pcDNA-Gal4TAD-Nur77/ΔDBD and pcDNA-Gal4 DBD-Bcl-2/ΔTM along with a luciferase reporter gene driven by four copies of the Gal-4-binding site. The cells were harvested and reporter gene activity was measured. For Co-IP assays, HEK293T cells were transiently transfected with various expression plasmids using a modified calcium phosphate precipitation method (Wu et al, 1997) in the presence of caspase inhibitors (zVAD-fmk) to prevent degradation of Nur77 protein due to apoptosis. Cells were suspended in lysis buffer (50 mM Tris-HCl, PH7.4; 150 mM NaCl; 20 mM EDTA; 1% NP-40; 1 mM PMSF; 50 μg/ml Leupeptin; […] Aprotinin; 0.1 mM Na3VO4; and 1 mM DTT). Cells extracts were cleared by incubation with the Protein A/G plus Agarose beads (Santa Cruz) and then incubated with appropriate antibody and 30 μl of Protein A or G plus Agarose beads overnight at 4° C. […] Immunoreactive products were detected by chemiluminescence with an enhanced chemiluminescence system (ECL) (Amersham).
Target sequence in this assay (P10415 whole entry): as the sequence (P10415 whole entry) above

GST-Bcl-2 = biological target: T4, GST-Bcl-2 (Homo sapiens, UniProt P10415); assay: Immunoprecipitation of purified GST-Bcl-2 by anti-Bcl-2/BH3 antibody; type: biochemical
T4 construct: made in house

H460 lung cancer cells [4] = assay: Apoptosis in H460 lung cancer cells; type: cell-based; settings: H460 cells; peptides conjugated with CPP, 10 μM
Bcl-2 [5] = biological target: T1, Bcl-2; assay: Bcl-2 conformational change, anti-Bcl-2/BH3 antibody staining of HEK293T cells transfected with Bcl-2; type: cell-based; parameters: expressed in transfected cells; host or cells: HEK293T
Description: Such a Bcl-2 conformation is recognized by an anti-Bcl-2 antibody raised against the Bcl-2 BH3 domain. To determine whether NuBCP-9 induced a Bcl-2 conformational change, flow cytometric assays were conducted which HEK293T cells transfected with Bcl-2 were exposed to NuBCPs and subsequently stained with the anti-Bcl-2/BH3 antibody.
Target sequence in this assay (P10415 whole entry): as the sequence (P10415 whole entry) above

[6] = tested on: MDA-MB435 breast carcinoma cells; assay: MDA-MB435 tumors in SCID mice; type: in vivo
Description: Animal studies. Female SCID mice (6-week-old) (Tacomic) were injected with 10^6 MDA-MB435 breast carcinoma cells. Tumors were palpable on day 7. On days 10 and 13, test peptides (620 μg in 50 μL PBS) were injected into the tumor areas of 5 mice. Tumor volumes (1×w^2) were determined using calipers. No weight changes were observed. Established tumors in control mice were injected with test peptides and tumor tissues were excised and sectioned after 3 days. Tissues were fixed (10% buffered formalin), then rapidly paraffin-embedded. Apoptosis was detected by the TUNEL assay.

H460 lung cancer cells [7] = assay: Apoptosis in H460 lung cancer cells; type: cell-based
Description: Bcl-2 siRNAs and antisense oligonucleotides-The target siRNA SMARTpools for Bcl-2 and Bak and the siRNA oligonucleotide for Nur77 (5'-[…] NO: 67) were purchased from Dharmacon Research Inc. Target or control siRNA were transfected at a final concentration of 200 nM into cells at 40% confluency using Oligofectamine reagent (Invitrogen) according to the manufacturer's recommendations. After 48 h, cells were analyzed. Bcl-2 antisense oligonucleotide targeting Bcl-2 and negative control oligonucleotides were obtained from Calbiochem. […] The percentages of apoptotic cells were determined by counting 300 GFP-positive cells, scoring cells having nuclear fragmentation and/or chromatin condensation. Cell culture. […] HEK293T embryonic kidney cells were grown in DME medium supplemented with 10% FBS. Jurkat and Jurkat cells stably expressing Bcl-2 were kindly provided by Dr. John Reed, and they were maintained in RPMI1640 medium.

Bcl-2 [8] = biological target: T1, Bcl-2; assay: Immunoprecipitation of endogenous Bcl-2 by anti-Bcl-2/BH3 antibody in treated cells; type: cell-based; parameters: precipitated endogenous Bcl-2 in cells treated with L-NuBCP-9-r8 or D-NuBCP-9-r8; endogenous in cells
Target sequence in this assay (P10415 whole entry, species assumed): as the sequence (P10415 whole entry) above

Sequence of Bcl-XL (Q07817 whole entry, species assumed): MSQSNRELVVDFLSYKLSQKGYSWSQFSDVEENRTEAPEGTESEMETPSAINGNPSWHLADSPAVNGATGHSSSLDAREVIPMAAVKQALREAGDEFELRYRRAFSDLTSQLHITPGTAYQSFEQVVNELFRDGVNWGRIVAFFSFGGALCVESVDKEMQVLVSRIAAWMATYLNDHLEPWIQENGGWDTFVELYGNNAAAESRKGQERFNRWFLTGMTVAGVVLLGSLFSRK
T4 sequence (P10415 whole entry): as the sequence (P10415 whole entry) above
Sequence of Mcl-1 (Q07820 whole entry, species assumed, the tested form may be a part): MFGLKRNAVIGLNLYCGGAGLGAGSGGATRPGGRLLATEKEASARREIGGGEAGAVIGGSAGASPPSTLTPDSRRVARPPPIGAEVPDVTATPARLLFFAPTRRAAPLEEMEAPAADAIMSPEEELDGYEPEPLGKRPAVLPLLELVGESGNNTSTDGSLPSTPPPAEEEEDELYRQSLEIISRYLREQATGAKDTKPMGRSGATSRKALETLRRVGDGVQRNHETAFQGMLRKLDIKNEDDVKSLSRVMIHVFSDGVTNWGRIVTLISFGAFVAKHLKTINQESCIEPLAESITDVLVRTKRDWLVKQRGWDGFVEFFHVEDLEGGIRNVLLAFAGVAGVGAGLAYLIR

Row | interaction with Mcl-1 by co-immunoprecipitation (Mcl-1) | interaction with Bfl-1 by co-immunoprecipitation (Bfl-1) | interaction with Bcl-XL by co-immunoprecipitation (Bcl-XL) | interaction with Bcl-B by co-immunoprecipitation (Bcl-B) | binding of Nur77/ΔDBD with Bcl-2 in presence of peptide (Bcl-2 [3]) | precipitation of GST-Bcl-2 protein by anti-Bcl-2/BH3 antibody (GST-Bcl-2) | Bcl-2 immunofluorescence by anti-Bcl-2/BH3 antibody (Bcl-2 [5]; flow cytometry) | Bcl-2 staining by anti-Bcl-2/BH3 antibody (Bcl-2 [5]; fluorescence microscopy) | Bcl-2 immunofluorescence in the presence of caspase inhibitor zVAD (Bcl-2 [5]; zVAD present) | precipitation of endogenous Bcl-2 by anti-Bcl-2/BH3 antibody (Bcl-2 [8]) | Substance | induction of apoptosis [1] | colocalization with RFP-Mito (mitochondria) | interaction with Bcl-2 by co-immunoprecipitation (Bcl-2 [2]) | apoptotic effect (H460 lung cancer cells [4]) | growth of tumors ([6]; SCID mice, 620 μg injected into tumor areas on days 10 and 13, vs control NuBCP-9/AA-r8) | apoptosis of tumor cells in vivo ([6]; TUNEL assay) | apoptotic function after Bcl-2 antisense oligonucleotides (H460 lung cancer cells [7]; Bcl-2 antisense oligonucleotides) | apoptotic effect after transfection of Bcl-2 siRNA (H460 lung cancer cells [7]; H460 cells, Bcl-2 siRNA vs control GFP siRNA)
1 | not | interacts | not | interacts | – | – | – | – | – | – | GFP-Nur77/489-497: NuBCP-9 (Nur77/489-497) sequence cloned as a green fluorescence protein (GFP) fusion (FSRSLHSLL; also: fused to GFP) | apoptotic | colocalized extensively | precipitated by anti-Bcl-2 antibody only when Bcl-2 was co-expressed; also recorded: interacts | – | – | – | – | –
2 | – | – | – | – | abrogated | strong precipitation | strong Bcl-2 immunofluorescence | strongly stained | observed | precipitated | acetyl------------FSRSLHSLLGXrrrrrrrr-amide (Ac-FSRSLHSLLG[Ahx][dR][dR][dR][dR][dR][dR][dR][dR]-NH2; SMILES CC(=O)N[C@@H](Cc1ccccc1)C(=O)N[C@@H](CO)C(=O)N[C@@H](CCCNC(=N)N)C(=O)N[C@@H](CO)C(=O)N[C@@H](CC(C)C)C(=O)N[C@@H](Cc1c[nH]cn1)C(=O)N[C@@H](CO)C(=O)N[C@@H](CC(C)C)C(=O)N[C@@H](CC(C)C)C(=O)NCC(=O)NCCCCCC(=O)N[C@H](CCCNC(=N)N)C(=O)N[C@H](CCCNC(=N)N)C(=O)N[C@H](CCCNC(=N)N)C(=O)N[C@H](CCCNC(=N)N)C(=O)N[C@H](CCCNC(=N)N)C(=O)N[C@H](CCCNC(=N)N)C(=O)N[C@H](CCCNC(=N)N)C(=O)N[C@H](CCCNC(=N)N)C(N)=O) [NuBCP-9-r8] | – | – | – | potently induce apoptosis | dramatically suppressed | potently induced | attenuated | inhibited
